Here are results for five molecules from patent US20230332136A1, “IL-17 RECEPTOR MODULATOR SCREENING SYSTEM” (New York University, priority 2022, published 2023).

The target in experiment [1] is T1, hIL-17RA/RC (Homo sapiens, UniProt Q8NAC3+Q96F46).
T1 construct: expressed in transfected cells; host or cells: MEF cells stably transduced with retroviral constructs (clonal hADIR-17 line)
T1 sequence (Q96F46 33-866): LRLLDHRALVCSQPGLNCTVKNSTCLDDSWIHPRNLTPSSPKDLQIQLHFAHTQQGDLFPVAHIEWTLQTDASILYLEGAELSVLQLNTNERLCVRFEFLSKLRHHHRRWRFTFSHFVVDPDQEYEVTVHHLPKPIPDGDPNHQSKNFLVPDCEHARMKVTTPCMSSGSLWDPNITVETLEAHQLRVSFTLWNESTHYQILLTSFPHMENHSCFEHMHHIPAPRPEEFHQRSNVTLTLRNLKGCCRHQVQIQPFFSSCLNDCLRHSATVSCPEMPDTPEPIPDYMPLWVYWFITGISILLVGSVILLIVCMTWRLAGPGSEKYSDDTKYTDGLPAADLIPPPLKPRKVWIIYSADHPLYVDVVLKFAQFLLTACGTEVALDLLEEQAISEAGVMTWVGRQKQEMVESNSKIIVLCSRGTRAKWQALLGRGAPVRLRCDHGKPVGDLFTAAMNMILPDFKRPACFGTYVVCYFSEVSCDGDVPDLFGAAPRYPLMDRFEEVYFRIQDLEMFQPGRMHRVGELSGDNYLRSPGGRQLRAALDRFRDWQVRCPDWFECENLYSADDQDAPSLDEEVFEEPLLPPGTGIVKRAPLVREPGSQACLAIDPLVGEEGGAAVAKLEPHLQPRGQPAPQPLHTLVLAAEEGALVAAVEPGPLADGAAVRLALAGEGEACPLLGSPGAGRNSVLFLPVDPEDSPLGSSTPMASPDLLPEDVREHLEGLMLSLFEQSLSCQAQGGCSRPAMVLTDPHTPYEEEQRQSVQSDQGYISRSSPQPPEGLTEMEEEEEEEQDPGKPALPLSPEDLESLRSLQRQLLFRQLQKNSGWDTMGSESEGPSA
T1 sequence (Q8NAC3 21-705 isoform Q8NAC3-3 limits assumed): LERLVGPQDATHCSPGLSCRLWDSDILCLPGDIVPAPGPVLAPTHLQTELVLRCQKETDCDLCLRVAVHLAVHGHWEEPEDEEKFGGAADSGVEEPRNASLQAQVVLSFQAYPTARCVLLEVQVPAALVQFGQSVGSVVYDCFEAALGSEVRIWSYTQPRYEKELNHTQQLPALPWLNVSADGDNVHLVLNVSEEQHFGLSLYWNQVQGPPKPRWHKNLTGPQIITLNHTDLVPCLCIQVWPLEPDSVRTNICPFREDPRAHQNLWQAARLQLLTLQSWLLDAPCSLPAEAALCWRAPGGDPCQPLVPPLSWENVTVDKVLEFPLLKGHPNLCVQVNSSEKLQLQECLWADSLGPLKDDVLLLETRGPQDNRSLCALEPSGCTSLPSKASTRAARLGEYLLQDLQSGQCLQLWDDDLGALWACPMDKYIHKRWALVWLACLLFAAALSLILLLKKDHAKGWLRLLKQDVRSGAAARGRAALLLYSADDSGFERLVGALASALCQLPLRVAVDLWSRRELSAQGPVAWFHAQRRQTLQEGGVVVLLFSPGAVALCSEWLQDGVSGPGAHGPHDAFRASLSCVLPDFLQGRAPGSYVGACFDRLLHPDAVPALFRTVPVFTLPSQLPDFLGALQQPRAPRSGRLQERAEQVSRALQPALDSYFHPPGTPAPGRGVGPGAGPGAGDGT
As to the kind of experiment: hADIR-17 dmCherry reporter assay (clonal cell line). It counts as cell-based. The settings on record: activator screen, increasing doses (FIG. 12). On the procedure: FIG. 9 provides a graphical depiction of constructs for use with human IL-17 receptors. Similar retroviral transfer plasmid constructs as mouse, with human cDNA sequences replacing mouse cDNA. Exogenous hIL-17RA is provided for a functional hADIR system. hIL-17RC, RB, RE constructs are added last separately to MEF cells already stably transduced with the other three required components, generating 3 independent cell lines.
(§1) Mouse constructs were produced as depicted in the panels of FIG. 1. Human sequence constructs were produced as in the panels of FIG. 9, where mouse cDNA constructs were replaced by human cDNA constructed. In the mouse ADIR system exogenous IL-17RC was not provided because the cell line (mouse embryonic fibroblasts) have endogenous IL-17RC expression. In the hADIR system, human components used for the hADIR system (hRA, hRC, hRB, hAct1) were expressed from added polynucleotides.
The data reflected in the Figures utilized a reporter system specifically designed for Act1-dependent IL-17 signaling pathways. The reporter system is based at least in part on the principle that the engagement of active cognate ligands, and the interaction between Act1 and IL-17 receptors is required for active signaling of IL-17A/F, IL-17E, and IL-17C. The protein-protein-interaction (PPI) based reporter system is highly specific and easily scalable. The disclosure is illustrated using mouse and human systems. For the data presented in the Figures, the system comprised a three-part reporter system specifically designed for detecting IL-17A/F, IL-17E, and IL-17C signaling. The PPI-based reporter system provides for detecting active signaling, and is specific for each of the IL-17 family cytokines. […] Each of the retroviral vectors can contain a unique selection or fluorescent marker to enable efficient generation and maintenance of stable cell lines (for example, Puromycin resistance for m/hIL-17RC(RB, RE)-TSC-tTA; EBFP for m/hAct1-TEV; Neomycin resistance and mVenus fluorescence for TRE-dmCherry-PEST, and Thy1.1 for m/hRA).
For orientation: Reporter assays use an easily measured gene product as a stand-in for the process of interest.

Experiment [2] deals with T2, IL-17RA/RC (Mus musculus, UniProt Q60943+Q8K4C2).
T2 construct: Full length IL-17RC in the purified ADIR system; expressed in transfected cells; host or cells: mouse embryonic fibroblasts (MEF), retrovirally transduced
T2 sequence (Q60943 32-864): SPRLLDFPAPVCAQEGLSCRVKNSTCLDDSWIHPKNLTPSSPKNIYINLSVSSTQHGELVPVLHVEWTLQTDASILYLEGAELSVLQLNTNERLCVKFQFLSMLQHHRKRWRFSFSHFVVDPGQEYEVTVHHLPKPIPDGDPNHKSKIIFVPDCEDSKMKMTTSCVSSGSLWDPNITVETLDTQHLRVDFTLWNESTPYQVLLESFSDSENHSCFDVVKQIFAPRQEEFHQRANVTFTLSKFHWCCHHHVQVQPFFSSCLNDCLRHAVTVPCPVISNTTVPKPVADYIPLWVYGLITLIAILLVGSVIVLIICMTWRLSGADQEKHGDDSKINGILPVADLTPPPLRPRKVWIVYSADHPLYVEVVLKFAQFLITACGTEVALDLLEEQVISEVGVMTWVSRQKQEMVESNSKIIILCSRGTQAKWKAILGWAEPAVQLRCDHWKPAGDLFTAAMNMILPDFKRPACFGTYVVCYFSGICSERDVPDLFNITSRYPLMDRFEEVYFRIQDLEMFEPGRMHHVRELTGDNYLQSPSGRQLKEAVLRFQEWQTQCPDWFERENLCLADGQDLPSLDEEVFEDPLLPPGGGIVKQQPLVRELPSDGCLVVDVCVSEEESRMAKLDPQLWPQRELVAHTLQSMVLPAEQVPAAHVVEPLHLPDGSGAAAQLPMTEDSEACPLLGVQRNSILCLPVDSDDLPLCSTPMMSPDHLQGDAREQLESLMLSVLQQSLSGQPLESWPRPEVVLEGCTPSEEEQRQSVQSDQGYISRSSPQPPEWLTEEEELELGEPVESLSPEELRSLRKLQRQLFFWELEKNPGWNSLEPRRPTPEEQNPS
T2 sequence (Q8K4C2 22-698): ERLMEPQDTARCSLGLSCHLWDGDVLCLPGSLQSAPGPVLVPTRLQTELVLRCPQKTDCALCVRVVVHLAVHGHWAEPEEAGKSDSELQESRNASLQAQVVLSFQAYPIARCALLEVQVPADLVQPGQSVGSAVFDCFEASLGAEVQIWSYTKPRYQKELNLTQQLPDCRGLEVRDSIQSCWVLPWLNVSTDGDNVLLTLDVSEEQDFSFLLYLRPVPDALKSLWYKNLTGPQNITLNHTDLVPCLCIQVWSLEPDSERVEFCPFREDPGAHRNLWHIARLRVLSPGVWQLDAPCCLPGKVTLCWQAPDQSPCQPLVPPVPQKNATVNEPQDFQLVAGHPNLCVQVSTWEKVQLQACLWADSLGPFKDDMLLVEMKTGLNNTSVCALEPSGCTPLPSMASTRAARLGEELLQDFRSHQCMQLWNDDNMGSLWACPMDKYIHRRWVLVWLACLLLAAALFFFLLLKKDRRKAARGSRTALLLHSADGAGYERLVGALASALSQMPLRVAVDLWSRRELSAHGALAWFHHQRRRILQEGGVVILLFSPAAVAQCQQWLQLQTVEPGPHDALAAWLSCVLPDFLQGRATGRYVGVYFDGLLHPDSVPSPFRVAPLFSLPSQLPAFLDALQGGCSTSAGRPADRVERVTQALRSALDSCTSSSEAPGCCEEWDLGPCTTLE
Description: mADIR-17 dmCherry reporter assay in MEF cells (flow cytometry). In kind it is cell-based. The settings on record: for dmCherry signal produced: after 24 hrs (FIG. 7).
Description: Unless defined otherwise herein, all technical and scientific terms used in this disclosure have the same meaning as commonly understood by one of ordinary skill in the art to which this disclosure pertains. Where the term “ADIR” is used herein it means ACT1-Dependent IL-17 Receptor Modulator Screening System. The preface “m” means mouse and the prefix “h” means human.
as §1
The data reflected in the Figures utilized a reporter system specifically designed for Act1-dependent IL-17 signaling pathways. The reporter system is based at least in part on the principle that the engagement of active cognate ligands, and the interaction between Act1 and IL-17 receptors is required for active signaling of IL-17A/F, IL-17E, and IL-17C. The protein-protein-interaction (PPI) based reporter system is highly specific and easily scalable. The disclosure is illustrated using mouse and human systems. For the data presented in the Figures, the system comprised a three-part reporter system specifically designed for detecting IL-17A/F, IL-17E, and IL-17C signaling. The PPI-based reporter system provides for detecting active signaling, and is specific for each of the IL-17 family cytokines. The system that is responsive to binding of IL-17A and IL-17F comprises (1) an Act1-tobacco etch virus (TEV) protease fusion protein, which upon active IL-17A/F binding to the IL-17RA/RC receptor heterodimer on a target cell, will be recruited to (2) IL-17RC fused with a TEV cleavage site(TSC)-tTA (a transcriptional transactivator that binds to tetracycline responsive element, or TRE), releasing tTA, which will subsequently translocate into the nucleus where a (3) TRE-dmCherry-PEST (destabilized mCherry) element is integrated into the genome. tTA binds to the TRE to drive dmCherry expression in the target modified cell. The three described components, Act1-TEV, IL-17RC-TSC-tTA, and TRE-dmCherry-PEST, along with IL-17RA, can be delivered by retro or lenti-viral vectors or guide-RNA directed nucleases, or recombinase systems, or by homologous recombination, into mouse embryonic fibroblasts (MEF) or other mammalian cell lines, establishing stable reporter cell lines. Using the same principle, IL-17RC-TSC-tTA can be replaced with IL-17RB-TSC-tTA in the described system to provide for IL-17E (IL-25) binding, and with IL-17RE-TSC-tTA for detecting IL-17C binding. A parallel approach involves attaching the fusion protein of —TSC-tTA to the RA component and three independent system cell lines generated by supplementing RC/RB/RE, Act1-TEV, and TRE-dmCherry reporter components. Each of the retroviral vectors can contain a unique selection or fluorescent marker to enable efficient generation and maintenance of stable cell lines (for example, Puromycin resistance for m/hIL-17RC(RB, RE)-TSC-tTA; EBFP for m/hAct1-TEV; Neomycin resistance and mVenus fluorescence for TRE-dmCherry-PEST, and Thy1.1 for m/hRA).

As to “hIL-17F: human IL-17F cytokine, cognate ligand in the hADIR-17 system”, the “dmCherry signal response of hADIR-17 clone to ligand” value in experiment [1] was “dose-dependent response”. The same measure, in the same setting: next, “hIL-17A: human IL-17A cytokine, cognate ligand in the hADIR-17 system”: “dose-dependent response”.

B1: IL-17F: mouse IL-17 family cytokine, cognate ligand of IL-17RA/RC (protein, UniProt Q7TNI7 29-161, looked up)
Interleukin-17F: RKNPKAGVPALQKAGNCPPLEDNTVRVDIRIFNQNQGISVPREFQNRSSSPWDYNITRDPHRFPSEIAEAQCRHSGCINAQGQEDSTMNSVAIQQEILVLRREPQGCSNSFRLEKMLLKVGCTCVKPIVHQAA
In the case of B1, the dmCherry signal produced was 0.48% in experiment [2] (0.4 ng/ml), 0.81% in experiment [2] (2 ng/ml), 3.32% in experiment [2] (10 ng/ml) and 13.8% in experiment [2] (50 ng/ml).

B2: IL-25: IL-25 (IL17E), noncognate ligand for the mADIR-17 system; binds IL-17RA/RB (protein, UniProt Q8VHH8 17-169, looked up)
Interleukin-25: VSLRIQEGCSHLPSCCPSKEQEPPEEWLKWSSASVSPPEPLSHTHHAESCRASKDGPLNSRAISPWSYELDRDLNRVPQDLYHARCLCPHCVSLQTGSHMDPLGNSVPLYHNQTVFYRRPCHGEEGTHRRYCLERRLYRVSLACVCVRPRVMA
Regarding B2, the “responsiveness of mADIR-17 cells (dmCherry signal) to ligand” value in experiment [2] (noncognate ligand, any doses, after 24 hrs, listed as mIL-17E) was “not responsive”.

B3: hIL-25: human IL-25, non-cognate ligand for hADIR-17; cognate ligand of the hADIR-25 system (protein, UniProt Q9H293 33-177, looked up)
Interleukin-25: YSHWPSCCPSKGQDTSEELLRWSTVPVPPLEPARPNRHPESCRASEDGPLNSRAISPWRYELDRDLNRLPQDLYHARCLCPHCVSLQTGSHMDPRGNSELLYHNQTVFYRRPCHGEKGTHKGYCLERRLYRVSLACVCVRPRVMG
Turning to B3, in experiment [1], the “dmCherry signal response of hADIR-17 clone to ligand” value is listed as “does not respond”.
